The text below walks through data of patent US20170360770A1.

In test [1] the target is human leukocyte antigen-DR (HLA-DR), on human cancer cell lines (human). Nature of the test: cell-based or functional assay.
For test [2] the target is unchanged. Nature of the test: cell-based ELISA on HLA-DR positive human melanoma cell line (printed A-374). (In general: In an ELISA, binding on a coated surface is turned into a signal by an enzyme label.)
For test [3] the target is unchanged. In words: chemiluminescent cell-binding assay on SK-MEL-5 human melanoma cells.
For test [4] the target is unchanged. Nature of the test: FACS, AlexaFluor-647-labeled IMMU-114 on MOLM-14 AML cells. (In flow cytometry, cells or beads pass a laser one at a time.)
The target is the same in test [5]. In words: FACS, AlexaFluor-647-labeled IMMU-114 on CAG MM cells.
Test [6] has the same target. Nature of the test: FACS, AlexaFluor-647-labeled IMMU-114 on MN-60 ALL cells.
For test [7] the target is unchanged. Nature of the test: chemiluminescent cell-binding assay (LUMIGLO), 2 µg/mL antibody on A-375 human melanoma cells, at both 4° C. and RT.
The target is the same in test [8]. Nature of the test: chemiluminescent cell-binding assay on SK-MEL-28 human melanoma cells.
The target is the same in test [9]. Nature of the test: chemiluminescent cell-binding assay on SK-MEL-2 human melanoma cells.
Test [10] shares this target. Nature of the test: FACS, AlexaFluor-647-labeled IMMU-114 on JVM-3 CLL cells.
The target is the same in test [11]. In words: chemiluminescent cell-binding assay (LUMIGLO), 2 µg/mL antibody on A-375 cells; reference: humanized anti-CD22 control antibody.
Test [12] has the same target. Nature of the test: chemiluminescent cell-binding assay on A-375 human melanoma cells.

A word on the Kd: it is the concentration at which binding is half-saturated. A lower Kd goes with a tighter complex. With “IMMU-140 (hL243-CL2A-SN-38), anti-HLA-DR antibody drug conjugate”, in [1], the IC50 (nM), in vitro cytotoxicity, CAG (MM) cells, MTS 96 h (nM (SN-38 equivalents)) stood at 7.05; the IC50 (nM), in vitro cytotoxicity, JVM-3 (CLL) cells, MTS 96 h (nM (SN-38 equivalents)) came to 0.77; the IC50 (nM), in vitro cytotoxicity, MN-60 (ALL) cells, MTS 96 h (nM (SN-38 equivalents)) was 1.29; the IC50 (nM), in vitro cytotoxicity, MOLM-14 (AML) cells, MTS 96 h (nM (SN-38 equivalents)) came to 1.21. Also, the Kd in test [2] came out at 0.77 nM.

B1: IMMU-114 (hL243), humanized anti-HLA-DR IgG4 monoclonal antibody (antibody, from a related filing, V domains shown)
VH: QVQLQQSGSELKKPGASVKVSCKASGFTFTNYGMNWVKQAPGQGLKWMGWINTYTREPTYADDFKGRFAFSLDTSVSTAYLQISSLKADDTAVYFCARDITAVVPTGFDYWGQGSLVTVSS
VL: DIQLTQSPSSLSASVGDRVTITCRASENIYSNLAWYRQKPGKAPKLLVFAASNLADGVPSRFSGSGSGTDYTFTISSLQPEDIATYYCQHFWTTPWAFGGGTKLQIKR
In turn, B1 registered a fold above background in test [3] of 12 fold. Also, in [4], the Mean fluorescence intensity (MFI) came to 5750 MFI. The Mean fluorescence intensity (MFI) in test [5] amounted to 80700 MFI. In [1], the IC50 (nM), in vitro cytotoxicity, CAG (MM) cells, MTS 96 h is above 40 nM; the IC50 (nM), in vitro cytotoxicity, JVM-3 (CLL) cells, MTS 96 h was 1.52 nM; the IC50 (nM), in vitro cytotoxicity, MN-60 (ALL) cells, MTS 96 h is above 40 nM; the IC50 (nM), in vitro cytotoxicity, MOLM-14 (AML) cells, MTS 96 h was above 40 nM. In test [1], this molecule yielded a Maximum % Inhibition at 40 nM, CAG (MM) cells of 28%; a Maximum % Inhibition at 40 nM, JVM-3 (CLL) cells of 65%; a Maximum % Inhibition at 40 nM, MN-60 (ALL) cells of 37%; a Maximum % Inhibition at 40 nM, MOLM-14 (AML) cells of 11%. This molecule also gave a Mean fluorescence intensity (MFI) in [6] of 65800 MFI. The same molecule showed a fold mean luminescence over background in test [7] above 48 fold. This molecule returned a fold above background in test [8] of 25 fold. Besides, the fold above background in test [9] came to 2 fold. Also, the Kd in [2] came out at 0.65 nM. The molecule further had a Mean fluorescence intensity (MFI) in [10] of 78700 MFI. This molecule displayed a fold mean luminescence over non-specific control in test [11] above 25 fold. Besides, the fold above background in [12] is 48 fold.
